Data set [1] concerns type 1 diabetes mellitus (T1DM). Description: ISLE-1 26-week Phase 2b randomized double-blind trial: A1c. The class given is in vivo, human. Particulars: ITT, 26 weeks. As for the experimental part:
ISLE-1 was a 26-week, Phase 2b, multicenter, randomized, double-blind, non-inferiority trial.
(§1) ISLE-1 was a 26-week, Phase 2b, multicenter, randomized, double-blind, trial in T1DM treated with multiple daily injections (MDI) of insulin.
Main exclusion criteria were total insulin dose ≥1.5 IU/kg/day or NPH insulin as basal.
Prandial dosing of HDV-lispro or control lispro was 15 minutes prior to the meal, and basal insulins were administered either as a single daily dose or a divided twice per day dosing, every 12 hours.
(§2) Informed of ˜10% dilution, participants continued their current insulin parameters. Hypoglycemia was recorded on Case Report Forms (CRFs) based on subject diaries and SMBG records, subjectively investigator-judged as “mild,” “moderate,” “severe,” or “life threatening.” Blinded continuous glucose monitoring (CGM) (Dexcom G4) was used for 5-7 days to assess glucose at baseline, weeks 13 and 26. A1c, lipids, and liver enzymes were measured approximately monthly. Liver fat content MRIs were performed in a subset.
The intent to treat (ITT) population included all randomized subjects receiving at least one dose of study treatment. Safety analyses included all randomized subjects. […] Mean A1c change was analyzed using ANCOVA within intent-to-treat (ITT) cohort at each visit. […]

For data set [2] the test system is unchanged. The experiment in a line: ISLE-1: hypoglycemia (CRF-reported and blinded CGM). As for the experimental part: as §1, §2
The intent to treat (ITT) population included all randomized subjects receiving at least one dose of study treatment. Safety analyses included all randomized subjects. […] Mean A1c change was analyzed using ANCOVA within intent-to-treat (ITT) cohort at each visit. […] Poisson regression models adjusting for site as random effect compared “severe” hypoglycemia incidence rates within A1c groups, testing for baseline A1c by treatment group interaction. Event number/subject was truncated at 15, accounting for extreme outliers.

The test system is the same in data set [3]. The experiment in a line: ISLE-1: lipids, liver enzymes, liver fat MRI, adverse events. The class given is in vivo, human. Particulars: over study. How it is done:
as §1, §2
The intent to treat (ITT) population included all randomized subjects receiving at least one dose of study treatment. Safety analyses included all randomized subjects. […] Mean A1c change was analyzed using ANCOVA within intent-to-treat (ITT) cohort at each visit. […] Direct likelihood models were used for treatment arm A1c comparisons, % time <54 mg/dL, bolus insulin, and basal insulin within the two A1c subgroups. Poisson regression models adjusting for site as random effect compared “severe” hypoglycemia incidence rates within A1c groups, testing for baseline A1c by treatment group interaction. Event number/subject was truncated at 15, accounting for extreme outliers.

Data set [4] shares this test system. Description: Continuous glucose monitoring results, Good to Great Hypoglycemia study (Table 1). The class given is in vivo, human. As for the experimental part:
A1c, lipids, and liver enzymes were measured approximately monthly. Liver fat content MRIs were performed in a subset.
Safety analyses included all randomized subjects.
Table 1 summarizes continuous glucose monitoring results in the Good to Great Hypoglycemia study, in terms of increased HDV-related hypoglycemia events.

Data set [5] relates to type 1 diabetes (T1D). Description: Example 3, 6-month open label study: insulin dosing, A1C, mean daily glucose, weight. The class given is in vivo, human. Particulars: 61 enrollees, mean baseline A1C 7.3. An excerpt:
Subcutaneous (SC) insulin is non-physiologic, since pancreatic insulin goes first to the liver. The present study was designed to determine whether delivery of Hepatic Directed Vesicles (HDV) admixed with lispro/HUMALOG® (HDV-L) decreases hypoglycemia in well controlled patients on multiple daily injections (MDI) with type 1 diabetes (T1D) using unblinded Dexcom G6 continuous glucose monitoring (CGM).
This study was a 6-month (mo) open label study of prandial insulin (lispro, 3 mo, then HDV-L, 3 mo) with basal insulin degludec (TRESIBA®) and unblinded continuous glucose monitoring (CGM) in T1D with baseline A1C 6.5-8.5%. Insulin dosing, hypoglycemia, and daily glucose control were among the monitored parameters.
In this study the target fasting blood glucose was 80-100 mg/dL. At 3 mo subjects were randomized to −10% or −40% basal dose to encourage titration with HDV-L. Physicians titrated basal insulin weekly. A hypoglycemic event was defined as ≥15 min of CGM≤54 mg/dL.

For insulin lispro, in data set [1], the “Mean change in A1c baseline to Week 26” value is on record as −0.16%. Further, the “CRF-reported incidence of "severe" hypoglycemia” value in data set [2] (baseline A1c<8.5%) was found to be 21 events/100 person-years. The “time <54 mg/dL during Week 26 (median)” value in data set [2] (baseline A1c<8.5%, CGM) was determined as 0.6%. Moreover, in data set [2] (baseline A1c≥8.5%), the “CRF-reported incidence rate of "severe" hypoglycemia” value stood at 97 events/100 person-years. In addition, in data set [2] (baseline A1c≥8.5%, CGM), the “percentage time <54 mg/dL during Week 26 (median)” value is 2.6%. In addition, the “change in total cholesterol” value in data set [3] was 7.3 mg/dL. Also, in data set [4] (Baseline), the “% Time <54 mg/dL, median” value is 2.1%; the “% Time <70 mg/dL, median” value was 5.8%; the “Area above curve <54 mg/dL, median” value was found to be 0.1; the “Area above curve <70 mg/dL, median” value came to 0.9. In data set [4] (Endpoint), the “% Time <54 mg/dL, median” value is given as 1.7%; the “% Time <70 mg/dL, median” value was 5.6%; the “Area above curve <54 mg/dL, median” value is 0.1; the “Area above curve <70 mg/dL, median” value is listed as 0.7. In data set [5], the “A1C after 3 mo optimization” value is recorded as 6.9%.

Source of the values: patent publication US10918700B2, “Lipid-based nanoparticles and use of same in optimized insulin dosing regimens” (SDG, Inc., priority 2019, dated 2021).
